Key:
Type in all cases: in vivo
[1] = tested on: hair follicles; test: Hair growth in young mice, topical application to shaved dorsal skin; conditions: 2-month old male ICR mice; for time until hair growth was observed after the treatment: water control 15-17 days
Experimental: To study the effect of lactoferrin in hair growth in young mice, five male ICR (outbred) mice, each 2 months old, were shaved to expose a portion of dorsal skin. For each treated mouse, the exposed portion of dorsal skin was further marked with three areas as illustrated in FIG. 1A to be subsequently administered different treatments. Referring to FIG. 1B, the three marked areas (from left to right) were treated by spreading topically on the exposed skin areas 60 μl of bovine lactoferrin (as an aqueous solution of 100 mg/ml), 60 μl of bovine lactoferrin (of 200 mg/ml) and 60 μl of control vehicle (water), respectively, on a twice daily basis. Observation for hair growth in the marked areas was made daily after the first treatment. […] The hair growth was observed on all five mice administered 200 mg/ml of lactoferrin 2 to 4 days after the treatment.
Hematoxylin and Eosin (H&E) staining was performed to microscopically examine the skin area treated with 200 mg/ml of lactoferrin or the control vehicle for 14 days. […] Thus, the proliferation of the anagen phase hair follicles evidently reflected the hair growth observed in the lactoferrin-treated area.

[2] = tested on: hair follicles; test: Hair growth in aged mice, topical application to shaved dorsal skin; conditions: 11-month old male ICR mice; for time until hair began to grow on the treated areas after the treatment: water control 21-23 days
Experimental: To further test whether lactoferrin could induce hair growth in aged mice, five male ICR mice, each 11 months old, were similarly shaved and marked with three areas of the exposed dorsal skin as described in Example 1. The marked areas of the mice were applied by spreading topically on the exposed skin areas 60 μl of aqueous solutions of bovine lactoferrin (100 mg/ml), 60 μl of bovine lactoferrin (200 mg/ml) and 60 μl of control vehicle (water) twice a day. Observation for hair growth in the marked areas was made daily after the first treatment. […] In general, the mice treated with 200 mg/ml of lactoferrin began to grow hair on the treated areas 4-6 days after the treatment. […] Spontaneous hair growth in the control area was only observed 21-23 days after the treatment. The hair growth-promoting effect of lactoferrin was consistently observed in all tested mice.
The H&E staining method was performed in a manner similar to Example 1 to examine the skin area treated with 200 mg/ml of lactoferrin or the control vehicle for 14 days. […] Thus, the hair follicles are clearly activated or triggered to re-enter from the telogen-phase to the anagen-phase. The activation of the hair follicles also reflects the hair growth observed in the lactoferrin-treated area.

[3] = tested on: hair follicles; test: Hair growth in 4-month old female mice, topical application to shaved dorsal skin; conditions: 60 μl of 200 mg/ml topically twice daily, after 10 days, not seen with control vehicle
Experimental: The marked areas of the mice were applied by spreading topically on the exposed skin areas 60 μl of aqueous solutions of bovine lactoferrin (200 mg/ml), 60 μl of control vehicle (water), and 60 μl of bovine lactoferricin, obtained as set forth in Example 3, (200 mg/ml) twice daily. Observation for hair growth in the marked areas is made daily after the first treatment. […] The hair growth-promoting effect of lactoferrin or lactoferricin was consistently observed in all tested mice. Although lactoferricin was prepared by the method described in Example 3 above, the present invention should not be limited to use only lactoferricin prepared in such manner. Lactoferricin prepared by other methods would still fall within the scope of the present invention.

[4] = 200 mg/ml, 14 days of treatment, H&E histology

B1: lactoferrin (protein, UniProt P24627 20-708, looked up)
Lactotransferrin: APRKNVRWCTISQPEWFKCRRWQWRMKKLGAPSITCVRRAFALECIRAIAEKKADAVTLDGGMVFEAGRDPYKLRPVAAEIYGTKESPQTHYYAVAVVKKGSNFQLDQLQGRKSCHTGLGRSAGWIIPMGILRPYLSWTESLEPLQGAVAKFFSASCVPCIDRQAYPNLCQLCKGEGENQCACSSREPYFGYSGAFKCLQDGAGDVAFVKETTVFENLPEKADRDQYELLCLNNSRAPVDAFKECHLAQVPSHAVVARSVDGKEDLIWKLLSKAQEKFGKNKSRSFQLFGSPPGQRDLLFKDSALGFLRIPSKVDSALYLGSRYLTTLKNLRETAEEVKARYTRVVWCAVGPEEQKKCQQWSQQSGQNVTCATASTTDDCIVLVLKGEADALNLDGGYIYTAGKCGLVPVLAENRKSSKHSSLDCVLRPTEGYLAVAVVKKANEGLTWNSLKDKKSCHTAVDRTAGWNIPMGLIVNQTGSCAFDEFFSQSCAPGADPKSRLCALCAGDDQGLDKCVPNSKEKYYGYTGAFRCLAEDVGDVAFVKNDTVWENTNGESTADWAKNLNREDFRLLCLDGTRKPVTEAQSCHLAVAPNHAVVSRSDRAAHVKQVLLHQQALFGKNGKNCPDKFCLFKSETKNLLFNDNTECLAKLGGRPTYEEYLGTEYVTAIANLKKCSTSPLLEACAFLTR
notes: 78-80 kDa glycoprotein; commercially obtained bovine lactoferrin applied as aqueous solution
[1]; [4]
  number of anagen phase hair follicles relative to control vehicle-treated area: approximately two-fold
  skin thickness versus control vehicle-treated skin: no significant difference
[1]; 60 μl of 100 mg/ml aqueous solution topically twice daily
  time until hair growth was observed after the treatment: 3 to 5 days
[1]; 60 μl of 200 mg/ml aqueous solution topically twice daily
  time until hair growth was observed after the treatment: 2 to 4 days
[1]; lactoferrin-treated skin (100 and 200 mg/ml), twice daily
  speed of hair growth versus control vehicle-treated skin: more rapid hair growth
[2]; 200 mg/ml, 14 days, H&E
  subcutaneous fat and skin thickness versus control area: increased subcutaneous fat and increased thickness of skin
[2]; 200 mg/ml, 14 days, H&E, control area uniform telogen-phase follicles
  hair follicle phase in histological examination: a large number of anagen-phase (actively growing stage) hair follicles
[2]; 200 mg/ml, after 11 days of treatment, not seen with control vehicle
  hair growth observed in the treated skin area: prominent hair growth
[2]; 60 μl of 100 mg/ml topically twice a day
  time until hair began to grow on the treated areas after the treatment: 6 to 8 days
[2]; 60 μl of 200 mg/ml topically twice a day
  time until hair began to grow on the treated areas after the treatment: 4 to 6 days
[2]; topical lactoferrin twice a day
  inflammation and morphological abnormalities of the treated skin: no inflammation and morphological abnormalities
[3]
  hair growth observed in the treated skin area: prominent hair growth
